The values below come from PMC11906892.

In one series the target is ZER1 (ZYG11BL) (Homo sapiens, UniProt Q7Z7L7 520-766). Nature of the series: ITC. A general note: ITC needs no label: the signal is the heat of the interaction.
The next series concerns the target ZYG11B (Homo sapiens, UniProt Q9C0D3 445-728). Nature of the series: ITC.

As usually defined, the Kd is the concentration at which binding is half-saturated. A lower Kd goes with higher affinity.

Sequence of ZER1 (ZYG11BL) (Q7Z7L7 520-766): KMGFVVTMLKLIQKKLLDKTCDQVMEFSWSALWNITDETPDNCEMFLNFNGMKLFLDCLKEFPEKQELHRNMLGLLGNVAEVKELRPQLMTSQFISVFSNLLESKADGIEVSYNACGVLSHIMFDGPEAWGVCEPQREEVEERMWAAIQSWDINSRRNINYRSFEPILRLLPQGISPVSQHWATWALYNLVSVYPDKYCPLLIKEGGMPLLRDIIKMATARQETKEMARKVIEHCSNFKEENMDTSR
Sequence of ZYG11B (Q9C0D3 445-728): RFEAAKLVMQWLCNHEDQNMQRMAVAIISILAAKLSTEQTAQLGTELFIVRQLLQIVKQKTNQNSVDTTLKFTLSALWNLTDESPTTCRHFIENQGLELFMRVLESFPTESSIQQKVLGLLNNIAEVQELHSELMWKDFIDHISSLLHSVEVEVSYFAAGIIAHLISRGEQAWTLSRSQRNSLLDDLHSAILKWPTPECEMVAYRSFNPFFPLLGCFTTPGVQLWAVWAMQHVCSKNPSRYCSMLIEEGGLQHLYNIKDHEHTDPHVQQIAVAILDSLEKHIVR

As to TCACCCGGTTGGGGCACACGTCTTGTTGATGGCTGC (ssDNA) [Apt#Z6], in the series with ZER1 (ZYG11BL), the binding result is recorded as “no binding”. The molecule also returned a Kd with ZYG11B of 4.69 ± 2.19 µM.
